Tests used:
[1] = molecular target: RFP_PCNA2 (Arabidopsis thaliana) (UniProt Q9ZW35); experiment: FRET or BRET; FLIM-FRET in nuclei of transiently transformed N. benthamiana leaf cells; donor GFP fusion, acceptor RFP fusion; E = (1 - tauDA/tauD) x 100%; FRET efficiency of free GFP/RFP (1.19%) used as threshold
[2] = molecular target: RFP_PCNA1 (Arabidopsis thaliana) (UniProt Q9M7Q7); experiment: as above
Sequence of UniProt Q9M7Q7 (Q9M7Q7 whole entry): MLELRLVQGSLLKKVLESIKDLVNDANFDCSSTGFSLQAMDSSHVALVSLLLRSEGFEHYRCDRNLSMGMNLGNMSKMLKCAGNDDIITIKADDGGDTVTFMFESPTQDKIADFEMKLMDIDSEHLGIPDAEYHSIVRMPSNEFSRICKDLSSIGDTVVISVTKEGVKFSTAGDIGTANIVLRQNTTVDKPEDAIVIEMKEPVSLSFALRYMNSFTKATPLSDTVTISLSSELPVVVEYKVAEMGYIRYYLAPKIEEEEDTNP

Sequence of UniProt Q9ZW35 (Q9ZW35 whole entry, the tested form may be a part): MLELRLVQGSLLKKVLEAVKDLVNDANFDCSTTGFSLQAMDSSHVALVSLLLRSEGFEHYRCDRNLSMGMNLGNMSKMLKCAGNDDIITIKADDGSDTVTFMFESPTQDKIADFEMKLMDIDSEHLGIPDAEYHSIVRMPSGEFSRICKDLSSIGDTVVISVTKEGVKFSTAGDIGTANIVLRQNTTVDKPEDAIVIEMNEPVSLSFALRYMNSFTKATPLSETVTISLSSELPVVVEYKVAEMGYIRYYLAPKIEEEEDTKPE

Row | Substance | FRET efficiency [1] | FRET efficiency [2]
1 | CycD4;1_GFP (from UniProt Q8LGA1 1-308) (natural protein) | 1.98% | 3.95%
2 | CycD4;2_GFP (from UniProt Q0WQN9 1-298) (natural protein) | 5.14% | 3.56%
3 | CycD6;1_GFP (from UniProt Q9ZR04 1-302) (natural protein) | 2.87% | 4.1%
4 | CycD7;1_GFP (from UniProt Q9LZM0 1-341) (natural protein) | 3.75% | 6.25%
